Like-named read-outs stand apart in the source and are kept apart here.

Test [1] has as its target Nicotiana benthamiana subtilisin-like serine protease SBT2, recombinant, C-terminal hexahistidine tag. The experiment in a line: enzyme inhibition (fluorogenic substrate); pH 5.5, 30°C.
Test [2] concerns the target Nicotiana benthamiana subtilisin-like serine protease SBT1, recombinant, C-terminal hexahistidine tag. The description is as above.
The target of test [3] is gp41 peptide […]. The experiment in a line: SPR, antibody captured on Protein A chip, peptide as analyte, 1:1 model. (In general: Surface plasmon resonance follows binding to a sensor surface in real time, without labels.)
The target of test [4] is T1, Nicotiana benthamiana subtilisin-like serine protease SBT2, recombinant, C-terminal hexahistidine tag.
T1 chain: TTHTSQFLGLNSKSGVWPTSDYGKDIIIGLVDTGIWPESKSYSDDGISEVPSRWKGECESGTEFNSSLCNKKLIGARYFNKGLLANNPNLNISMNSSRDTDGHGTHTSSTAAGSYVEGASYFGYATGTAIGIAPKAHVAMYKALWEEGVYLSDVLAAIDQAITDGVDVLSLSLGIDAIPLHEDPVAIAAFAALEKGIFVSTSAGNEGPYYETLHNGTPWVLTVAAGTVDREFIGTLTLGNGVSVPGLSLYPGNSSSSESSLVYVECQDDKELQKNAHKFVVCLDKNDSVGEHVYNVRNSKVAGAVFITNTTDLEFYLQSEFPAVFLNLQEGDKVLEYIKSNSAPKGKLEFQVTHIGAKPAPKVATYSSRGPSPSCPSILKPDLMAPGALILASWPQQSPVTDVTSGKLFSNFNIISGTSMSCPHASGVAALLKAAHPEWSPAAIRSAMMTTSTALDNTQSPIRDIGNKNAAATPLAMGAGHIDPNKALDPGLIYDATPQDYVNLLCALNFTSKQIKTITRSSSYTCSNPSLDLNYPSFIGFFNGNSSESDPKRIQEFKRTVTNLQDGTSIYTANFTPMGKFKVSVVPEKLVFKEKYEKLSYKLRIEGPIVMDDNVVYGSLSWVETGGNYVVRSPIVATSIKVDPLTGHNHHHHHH
Put plainly: enzyme inhibition (fluorogenic substrate); pH 5.5, 30°C.

In test [5] the target is T2, Nicotiana benthamiana subtilisin-like serine protease SBT1, recombinant, C-terminal hexahistidine tag.
T2 chain: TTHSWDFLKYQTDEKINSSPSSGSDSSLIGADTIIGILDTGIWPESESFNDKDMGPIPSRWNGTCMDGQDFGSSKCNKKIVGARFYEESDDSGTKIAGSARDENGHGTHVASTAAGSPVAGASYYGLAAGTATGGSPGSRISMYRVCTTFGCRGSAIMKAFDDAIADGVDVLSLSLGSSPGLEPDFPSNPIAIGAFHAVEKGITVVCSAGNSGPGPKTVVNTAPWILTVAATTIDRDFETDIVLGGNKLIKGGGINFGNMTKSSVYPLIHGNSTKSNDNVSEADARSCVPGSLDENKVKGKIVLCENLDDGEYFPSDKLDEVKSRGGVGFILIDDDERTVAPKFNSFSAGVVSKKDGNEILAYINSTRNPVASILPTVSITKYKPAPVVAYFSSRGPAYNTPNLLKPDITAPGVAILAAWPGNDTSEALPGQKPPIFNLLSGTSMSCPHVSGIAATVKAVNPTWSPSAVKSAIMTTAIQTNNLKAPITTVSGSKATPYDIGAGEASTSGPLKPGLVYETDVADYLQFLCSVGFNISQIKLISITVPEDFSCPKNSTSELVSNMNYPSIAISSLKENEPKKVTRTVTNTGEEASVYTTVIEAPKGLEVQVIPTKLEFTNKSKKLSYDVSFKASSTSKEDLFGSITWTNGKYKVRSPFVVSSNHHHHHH
Described as above.

As to “S106g065370 (subtilisin propeptide-like inhibitor from S. lycopersicum)”, in test [1], the Ki (in general, a dissociation constant, usually derived from enzyme kinetics or from competition with a known ligand) was 27 nM.
On to “S111g018590 (subtilisin propeptide-like inhibitor from S. lycopersicum)”, for which the Ki in test [2] was 51 nM.
Turning to “cleaved 2F5 (2F5 degradation product after digestion with apoplastic fluid proteases) (antibody)”, the fold reduction of affinity against intact 2F5 in test [3] was above 20 fold.

B1: Arabidopsis thaliana subtilisin propeptide-like inhibitor 2 (other)
chain: RTLGPAPDNQQMKCYLVNVDFALYHGDCKQYQQLLKKVVHGRSAKDALVYCYKEVMSGFAAKLTAAEAEKLKGEKGISAIDVDHIFSMDVEPHSHGKGY
On to B1, for which the Ki was 45 nM in test [4] and 81 nM in test [5].

Source of the values: US20220228161A1 (published 2022).
